For orientation: Kd means a measure of binding affinity in units of concentration. A higher Kd goes with a looser complex.

Assay [1] addresses HER2 (as partner of the 'natural' / 'original' dissociation constants) (UniProt P04626). Kind of assay: natural dissociation constant of the molecule outside the sensor; method not stated.
Assay [2] shares this target. Kind of assay: natural dissociation constant of the bought molecule outside the sensor; method not stated.

In assay [1], “Z342-EGFP-Histag (a molecule having a polyhistidine tag and an anti-HER2 affibody to which a fluorescence group EGFP is fused) (designed binder)” had a Kd of 0.106 nM.

Consider “Anti-Her2 Affibody Molecule (anti-Her2 affibody molecule, Abcam) (designed binder)”, for which, in assay [2], the Kd worked out at 0.032 nM. This lies in the picomolar range.

The record behind these values is patent publication US20230375537A1.
